Reference: US20260234222A1

Target: SARS-CoV-2 Delta Spike antigen (SARS-CoV-2 Delta)
Assay: ELISA, Spike antigen coated on plate

Anti-S1 antibody ImdevimAb
EC50: 0.01 nM

Anti-S1 antibody DZIF-10c
EC50: 6.9 nM
